Experimental data from the DeepSol protein solubility set.

Assay: soluble on expression in E. coli; label from the status in PepcDB or PDB records

Row | Sequence | soluble on expression in E. coli
1 | MMKKRASHHLVICTLIDTLRFRLSSRKAISMNAFNKLVKHSKKISNFNHLSSIVGWDQAAVMPSGGAEARSQAMAELSVHIHGLMTQPQLADWFAEAESETLNIEQQATLREMKRQWQQATVLPEALVEAQSLAGSKCEHAWRSQRKNNDWTGFEKNWAEVVKLSQEEAQIRAEATGKTPYDAMLELYEPGTTTEQLNRVFSDVKTWLPSLIDVVIEKQSSESFIAPKGHYPAESQKALGLDVMKLLQFDFNHGRLDESVHPFCGGVPSDVRITTRYNESEFVQSLMGIVHETGHARYEQGLPKHLAGTPAGEARSMGIHESQSLFFEMQVGRSPAFIAHLAELAGKHFSAMNDPVFRVENIQKLYTRVQKDFIRVDADELTYPAHVILRFEIERDLMNGKIKHTDVPELWDQKMQAYLGLSTKGNDQNGCMQDIHWTDGSFGYFPSYTLGAMYAAQFMAAMKKTVDVDGAIRRGDLSPIFTWLSENIWSKGSLFSTDELVKQATGETLNPEHFKAHLSQRYLK | not soluble
2 | MMLSTEGREGFVVKVRGLPWSCSADEVMRFFSDCKIQNGTSGIRFIYTREGRPSGEAFVELESEEEVKLALKKDRETMGHRYVEVFKSNSVEMDWVLKHTGPNSPDTANDGFVRLRGLPFGCSKEEIVQFFSGLEIVPNGMTLPVDFQGRSTGEAFVQFASQEIAEKALKKHKERIGHRYIEIFKSSRAEVRTHYDPPRKLMAMQRPGPYDRPGAGRGYNSIGRGAGFERMRRGAYGGGYGGYDDYGGYNDGYGFGSDRFGRDLNYCFSGMSDHRYGDGGSSFQSTTGHCVHMRGLPYRATENDIYNFFSPLNPMRVHIEIGPDGRVTGEADVEFATHEDAVAAMAKDKANMQHRYVELFLNSTAGTSGGAYDHSYVELFLNSTAGASGGAYGSQMMGGMGLSNQSSYGGPASQQLSGGYGGGYGGQSSMSGYDQVLQENSSDYQSNLA | soluble
3 | MMMDLNIRRVVLDVDKGLNRPTLVELAAAIEKVQGVEAVNIIVTEMDMETMGTNITVEGTNINYDELIETIENTGSAIHSVDEIAVGKRLIENVRRNQN | soluble
4 | MMNPLIIKLGGVLLDSEEALERLFSALVNYRESHQRPLVIVHGGGCVVDELMKGLNLPVKKKNGLRVTPADQIDIITGALAGTANKTLLAWAKKHQIAAVGLFLGDGDSVKVTQLDEELGHVGLAQPGSPKLINSLLENGYLPVVSSIGVTDEGQLMNVNADQAATALAATLGADLILLSDVSGILDGKGQRIAEMTAAKAEQLIEQGIITDGMIVKVNAALDAARTLGRPVDIASWRHAEQLPALFNGMPMGTRILA | soluble
5 | MMPYILVFMVCIFLTSISSRKKIIPLLLSCLILSLFAGFRDKNIGSDTDFYPHWYISEIRYIHNLIDLITIETERNLDKGYLFLYWIASWIGNQ | not soluble
6 | MMRRGGQHLSPDPIGLGGGIQPQSYVHNPLEWVDPLGLTESGCKQPNSPENSQKPEVKKPNISTKIHDGAQGKHIEGHNNYVEGKSVIDAKPQELLDNYHAGNVNTSRVINENKIKVDFGDVNGTHKDMNGTNTSTSWGLIHSRKNGAHIVPALPDTILEHHHHHH | not soluble
7 | MMRRGLLLLNLGTPNNADIRAVKLYLREFLTDKRVIDLPTIPRYILVYCLILPFRSPKSAQAYQSIWTEKGSPLLYHSQNLVTKLQSALKDEYKIALGMRYGTPSITTALAELKDCHSLTILPLFPQYSSAATGSAIEKTLSHLANQEIIPSIKIIRDFYQRPEYIQAQAKIMKPYIKDNFHLLFSYHGIPERHIHKSGCDTLCPQTCTPIYDKNQACYRAQCYQTSLLLAKELQLGTHQYTTAFQSRLGKTPWIKPYTDEIFAELISKGIKNIVVSCPSFVADCLETLEEIGIRAKEQWEKLGGEQFILTPCMNDHPEWIKAIQSIVNEQF | not soluble
8 | MMRVAIFTDTFTPQVNGVAKTLERLTQYFQKEQIAYSVFAPQHTAEDNFVANVNKMRSIPLTILYPECRFSFPTPRIKRELLSFKPDIIHIATPFNMGLCGLYYAKKLNIPVVGSYHTDFDAYLRYYKIEFLSNMLWNYLKWFHSHMQKNFVPSFETLHQLKNKGFQTLSIWGRGVDCTLFHPAYNTDLFRKKYNITAKYVLSYVGRIAPEKDIDTLQHLIVKTAHTRNDIHWLIAGDGPLATSLREAVPKTNITFTGYLQGGDLAEAYACSNIMVFPSATETFGNVVLESLACGTPVIGANSGGVKNIITDGKTGVLCPPKNEDAFLSSIYFLLQNEEKLEQMGIESSSFAKSKSWDEVFRGLLNQYEEVLQHNASELLALEHHHHHH | soluble
9 | MMSILRSQCQISLDVTLSVPNVSEGIVRLLDPQTNTEIANYPIYKILFCVRGHDGTPESDCFAFTESHYNAELFRIHVFRCEIQEAVSRILYSFATAFRRSAKQTPLSATAAPQTPDSDIFTFSVSLEIKEDDGKGYFSAVPKDKDRQCFKLRQGIDKKIVIYVQQTTNKELAIERCFGLLLSPGKDVRIVTALIRFGSMGKVQMESRMLFGELESKIPTFSSCNEEPPKDKVLFMTTAVDLVITEVQEPVRFLLETKVRVCSPNERLFWPFSKRSTTENFFLKLKQIKQRERKNNTDTLYEVVCLESLEHHHHHHLEHHHHHHLEHHHHHHLEHHHHHHLEHHHHHHLEHHHHHHLEHHHHHH | not soluble
10 | MMSLLAVGLVFGLAACSGTSDAKGKIVISGKKFTEQVILTHLLAEYVKANTDLDVEVKDSLGGAFMLQQAIENGDVDMYVEYTGTGYLNILKQPYDPAKTPEQIYNETKKLYKEKYNIAWLKPLGFNNTYALAMRRDLAEKLGVKTYSDLAKHSSSLTFGSDAEFFERSDGYDGLVDTYGFQFKKKVTIDPDLQYEAAKNSEIDVITAYTTDARIKKYDLVVLKDDKQYFPPYHAVPIIRQEVLDANPGLEKKLNKLANILTDEKMMELNGQVNLEGKQPREVALDFLKAEGLID | not soluble
11 | MMTLPYPYSSSARFYALRLLPGQEVFSQLHAFAQQQQLHAAWIAGCTGSLTDIALRYAGQEGTTLLNGTFEVISLNGTLEQSGEHLHLCVSDPHGTMLGGHMMPGCTVRTTLELVIGSLEELAFSRQPCALSGYDELHISPVK | not soluble
12 | MNAAEVIVYEHVNFGGKSFDATSDQPGAGDNLNDKISSIKVKSGTWRFYEYINYGGRYWDLGPGEYSSVESAGIPDNSISSFRQI | soluble
13 | MNAPRCLRRLLERQWRQGGWLSTLLRPLAALTGLVVARKRNAYLTGARAAWRAPVPVVVVGNIYVGGTGKTPVVIEVVRQLQARGWTPGVVSRGYGVDVGAAPRVGQGQLAAADYGDEPALIARATGAAIAVHPHRPRAVQALLRAHPGVDVVVSDDGLQHLALARDVEIVVQDERGVGNGRLLPAGPLREPAQRLADVDAIVTNAGRPRAAAAPAAGAPRQLAMWLEPTHAQRVTDGATRTLADLAALPPARLAAAAGIGNPARFFQTLEQAGIRPAHTLALPDHYAYAQSPFTALDADLILVTAKDAIKCAALDDPRLWAVQVGTRLSDPDFGDWLSATLRARQPKLAAALEHHHHHH | not soluble
14 | MNARSTGQHPARYPGAAAGEPTLDSWQEPPHNRWAFAHLGEMVPSAAVSRRPVNAPGHALVRLGAIAAQLPDLEQRLEQTYTDAFLVLRGTEVVAEYYRAGFAPDDRHLLMSVSKSLCGTVVGVLVDEGRIDPAQPVTEYVPELAGSVYDGPSVLQVLDMQISIDYNEDYVDPASEVQTHGRSAGWSTRRHGDPADTYEFLTTLRGDGSTGEFQYCSANTDVLAWIVERVTGLRYVEALSTYLWAKLDADRDATITVDTTGFGCAHGGVSCTARDLARVGRMMLDGGVAPRGRVVSEDWVRRVLAGGSHEAMTDKGFTNTFPDGSYTRQWWCTGNERANVSGIGIHGQNLWLDPLTDSVIVKLSSWPDPYTEHWHRLQNGILLDVSRALDAV | soluble
15 | MNDNKILVVNAGSSSIKFQLFDYHKKVLAKALCERIFVDGFFKLEFNEQKVEEKVAFPDHHAAVTHFLNTLKKHKIIQELSDIILVGHRVVQGANYFKDSVIVDAEALAKIKEFIKLAPLHNKPEADVIEIFFKEVPSAKNVAVFDTTFHTTIPQENYLYAVPRSWEQKHLVRRYGFHGTSYKFINNYLEKHLNKQNLNLIVCHLGNGASVCAIKNGKSFNTSMGFTPLEGLIMGTRSGDLDPAIIGYVAEQENMSASDVVNALNKKSGMLALTGASDMRDVFAKPQENAVAIKMYVNRVADYIAKYLNQLEGNIDGLVFTGGIGENASDCVELFINAVKSLGFATDLKLFVKYGDSCVVSTPQSKYKIYRVRTNEELMIVEDSIRLTQK | soluble
